Here are results for 6 molecules from paper PMC10397247.

For assay [1], the target named is T1, Core_ININ-es_KEEE.
T1 chain: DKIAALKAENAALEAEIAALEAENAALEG
Kind of assay: two-hybrid library CCmax.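 Also: natural log of median RNA to DNA barcode read ratio; higher means stronger binding.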 Particulars: mean of both orientations.

In assay [2] the target is T2, 4H2444-bH.
T2 chain: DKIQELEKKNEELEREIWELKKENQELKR
Put plainly: two-hybrid library CCNG1.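 Also: natural log of median RNA to DNA barcode read ratio; higher means stronger binding.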

For assay [3], the target named is T3, 4H2253-bH.
T3 chain: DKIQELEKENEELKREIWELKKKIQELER
Kind of assay: two-hybrid library CCNG1.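 Also: natural log of median RNA to DNA barcode read ratio; higher means stronger binding.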

For assay [4], the target named is T4, 4H2931-bH.
T4 chain: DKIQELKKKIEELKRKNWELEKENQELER
Kind of assay: two-hybrid library CCNG1.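 Also: natural log of median RNA to DNA barcode read ratio; higher means stronger binding.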

Assay [5] has as its target T5, 4H2233-bH.
T5 chain: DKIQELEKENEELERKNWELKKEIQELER
Kind of assay: two-hybrid library CCNG1.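 Also: natural log of median RNA to DNA barcode read ratio; higher means stronger binding.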

The target of assay [6] is T6, 4H3364-bH.
T6 chain: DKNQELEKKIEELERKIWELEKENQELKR
Put plainly: two-hybrid library CCNG1.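 Also: natural log of median RNA to DNA barcode read ratio; higher means stronger binding.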

The target in assay [7] is T7, 4H349-bH.
T7 chain: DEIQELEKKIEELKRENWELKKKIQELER
Put plainly: two-hybrid library CCNG1.

Assay [8] concerns the target T8, 4H2518-bH.
T8 chain: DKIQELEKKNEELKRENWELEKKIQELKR
Put plainly: two-hybrid library CCNG1.

In assay [9] the target is T9, 4H796-bH.
T9 chain: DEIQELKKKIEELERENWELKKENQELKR
Put plainly: two-hybrid library CCNG1.

Assay [10] concerns the target T10, 4H730-bH.
T10 chain: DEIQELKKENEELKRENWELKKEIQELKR
Put plainly: two-hybrid library CCNG1.

Assay [11] addresses T11, 4H56-bH.
T11 chain: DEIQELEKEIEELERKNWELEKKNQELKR
Put plainly: two-hybrid library CCNG1.

Assay [12] has as its target T12, 4H949-bH.
T12 chain: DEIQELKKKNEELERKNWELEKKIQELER
Put plainly: two-hybrid library CCNG1.

The target of assay [13] is T13, 4H2760-bH.
T13 chain: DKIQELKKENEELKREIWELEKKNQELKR
Kind of assay: two-hybrid library CCNG1.

For assay [14], the target named is T14, 4H967-bN.
T14 chain: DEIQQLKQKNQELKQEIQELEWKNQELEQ
Put plainly: two-hybrid library CCNG1.

The target of assay [15] is T15, 4H932-bH.
T15 chain: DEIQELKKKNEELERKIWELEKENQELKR
Put plainly: two-hybrid library CCNG1.

Assay [16] concerns the target T16, 4H3381-bH.
T16 chain: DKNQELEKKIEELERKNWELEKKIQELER
Put plainly: two-hybrid library CCNG1.

Assay [17] deals with T17, 4H235-bH.
T17 chain: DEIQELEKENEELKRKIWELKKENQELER
Kind of assay: two-hybrid library CCNG1.

Assay [18] deals with T18, 4H2585-bH.
T18 chain: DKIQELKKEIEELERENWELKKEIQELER
Put plainly: two-hybrid library CCNG1.

The target in assay [19] is T19, 4H2143-bH.
T19 chain: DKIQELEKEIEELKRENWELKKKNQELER
Kind of assay: two-hybrid library CCNG1.

Assay [20] deals with T20, 4H2162-bH.
T20 chain: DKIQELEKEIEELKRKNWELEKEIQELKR
Put plainly: two-hybrid library CCNG1.

Assay [21] concerns the target T21, 4H3041-bH.
T21 chain: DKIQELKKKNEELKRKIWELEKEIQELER
Kind of assay: two-hybrid library CCNG1.

Assay [22] addresses T22, 4H3297-bH.
T22 chain: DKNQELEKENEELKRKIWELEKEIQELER
Put plainly: two-hybrid library CCNG1.

Assay [23] deals with T23, 4H2859-bH.
T23 chain: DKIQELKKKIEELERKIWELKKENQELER
Kind of assay: two-hybrid library CCNG1.

Assay [24] concerns the target T24, 4H264-bH.
T24 chain: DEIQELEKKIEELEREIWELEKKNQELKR
Put plainly: two-hybrid library CCNG1.

The target in assay [25] is T25, 4H166-bH.
T25 chain: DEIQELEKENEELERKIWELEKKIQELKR
Put plainly: two-hybrid library CCNG1.

Assay [26] has as its target T26, APC2981-AA.
T26 chain: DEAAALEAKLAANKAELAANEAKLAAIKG
Put plainly: two-hybrid library CCmax. Particulars: mean of both orientations.

Assay [27] has as its target T27, APC2543-AA.
T27 chain: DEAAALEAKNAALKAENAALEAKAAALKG
Kind of assay: two-hybrid library CCmax. Particulars: mean of both orientations.

The target of assay [28] is T28, APC2556-AA.
T28 chain: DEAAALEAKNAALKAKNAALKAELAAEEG
Put plainly: two-hybrid library CCmax. Particulars: mean of both orientations.

The target in assay [29] is T29, APC9182-AA.
T29 chain: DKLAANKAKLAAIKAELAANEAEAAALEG
Put plainly: two-hybrid library CCmax. As to conditions: mean of both orientations.

Assay [30] deals with T30, APC6088-AA.
T30 chain: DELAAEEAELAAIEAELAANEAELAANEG
Put plainly: two-hybrid library CCmax. Particulars: mean of both orientations.

For assay [31], the target named is T31, APC9291-AA.
T31 chain: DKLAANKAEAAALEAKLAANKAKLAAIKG
Kind of assay: two-hybrid library CCmax. Particulars: mean of both orientations.

Assay [32] deals with T32, APC4100-AA.
T32 chain: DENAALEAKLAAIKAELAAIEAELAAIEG
Put plainly: two-hybrid library CCmax. As to conditions: mean of both orientations.

In assay [33] the target is T33, APC3881-AA.
T33 chain: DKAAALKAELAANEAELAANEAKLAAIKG
Kind of assay: two-hybrid library CCmax. As to conditions: mean of both orientations.

In assay [34] the target is T34, APC2375-AA.
T34 chain: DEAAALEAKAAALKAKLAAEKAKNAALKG
Put plainly: two-hybrid library CCmax. Particulars: mean of both orientations.

Assay [35] addresses T35, APC4336-AA.
T35 chain: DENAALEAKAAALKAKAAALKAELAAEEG
Put plainly: two-hybrid library CCmax. Particulars: mean of both orientations.

The target of assay [36] is T36, APC8401-AA.
T36 chain: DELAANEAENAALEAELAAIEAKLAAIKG
Put plainly: two-hybrid library CCmax. Particulars: mean of both orientations.

The target in assay [37] is T37, APC5009-AA.
T37 chain: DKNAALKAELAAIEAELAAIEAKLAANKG
Kind of assay: two-hybrid library CCmax. As to conditions: mean of both orientations.

Assay [38] addresses T38, APC9806-AA.
T38 chain: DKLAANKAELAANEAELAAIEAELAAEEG
Kind of assay: two-hybrid library CCmax. Particulars: mean of both orientations.

The target in assay [39] is T39, APC2257-AA.
T39 chain: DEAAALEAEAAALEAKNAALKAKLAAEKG
Kind of assay: two-hybrid library CCmax. Particulars: mean of both orientations.

In assay [40] the target is T40, APC1987-AA.
T40 chain: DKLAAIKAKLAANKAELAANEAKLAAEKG
Put plainly: two-hybrid library CCmax. Particulars: mean of both orientations.

Assay [41] concerns the target T41, APC2811-AA.
T41 chain: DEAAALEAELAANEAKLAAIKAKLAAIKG
Put plainly: two-hybrid library CCmax. As to conditions: mean of both orientations.

The target of assay [42] is T42, APC1916-AA.
T42 chain: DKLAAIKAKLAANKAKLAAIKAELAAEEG
Put plainly: two-hybrid library CCmax. Particulars: mean of both orientations.

Assay [43] concerns the target T43, APC8516-AA.
T43 chain: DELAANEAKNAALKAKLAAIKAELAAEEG
Kind of assay: two-hybrid library CCmax. As to conditions: mean of both orientations.

Assay [44] deals with T44, APC1115-AA.
T44 chain: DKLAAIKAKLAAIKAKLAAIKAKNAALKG
Kind of assay: two-hybrid library CCmax.

Assay [45] addresses T45, APC3265-AA.
T45 chain: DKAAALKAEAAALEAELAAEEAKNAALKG
Kind of assay: two-hybrid library CCmax. Particulars: mean of both orientations.

For assay [46], the target named is T46, APC3323-AA.
T46 chain: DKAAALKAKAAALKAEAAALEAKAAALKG
Kind of assay: two-hybrid library CCmax. As to conditions: mean of both orientations.

For assay [47], the target named is T47, APC2724-AA.
T47 chain: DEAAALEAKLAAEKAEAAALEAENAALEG
Kind of assay: two-hybrid library CCmax. Particulars: mean of both orientations.

The target in assay [48] is T48, APC2474-AA.
T48 chain: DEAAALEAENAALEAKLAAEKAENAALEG
Put plainly: two-hybrid library CCmax. Particulars: mean of both orientations.

Assay [49] concerns the target T49, APC5531-AA.
T49 chain: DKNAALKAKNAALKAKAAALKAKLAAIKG
Kind of assay: two-hybrid library CCmax. Particulars: mean of both orientations.

For assay [50], the target named is T50, APC9141-AA.
T50 chain: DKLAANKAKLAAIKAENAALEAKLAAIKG
Put plainly: two-hybrid library CCmax. Particulars: mean of both orientations.

In assay [51] the target is T51, APC3354-AA.
T51 chain: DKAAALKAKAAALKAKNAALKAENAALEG
Put plainly: two-hybrid library CCmax. Particulars: mean of both orientations.

For assay [52], the target named is T52, APC222-AA.
T52 chain: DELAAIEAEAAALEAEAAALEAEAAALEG
Put plainly: two-hybrid library CCmax. As to conditions: mean of both orientations.

Assay [53] deals with T53, APC1242-AA.
T53 chain: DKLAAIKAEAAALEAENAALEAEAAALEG
Put plainly: two-hybrid library CCmax. As to conditions: mean of both orientations.

Assay [54] deals with T54, APC542-AA.
T54 chain: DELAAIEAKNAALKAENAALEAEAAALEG
Kind of assay: two-hybrid library CCmax. Particulars: mean of both orientations.

Assay [55] has as its target T55, APC7524-AA.
T55 chain: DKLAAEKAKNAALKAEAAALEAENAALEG
Kind of assay: two-hybrid library CCmax. As to conditions: mean of both orientations.

For assay [56], the target named is T56, Core_NIII-es_KKKK.
T56 chain: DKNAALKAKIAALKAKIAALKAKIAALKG
Put plainly: two-hybrid library CCmax. As to conditions: mean of both orientations.

The target of assay [57] is T57, Core_INII-es_KEEE.
T57 chain: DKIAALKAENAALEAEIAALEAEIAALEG
Kind of assay: two-hybrid library CCmax. Particulars: mean of both orientations.

In assay [58] the target is T58, Core_INNI-es_KEKE.
T58 chain: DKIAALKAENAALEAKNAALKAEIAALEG
Kind of assay: two-hybrid library CCmax. Particulars: mean of both orientations.

With DEIAALEAKNAALKAKIAALKAKNAALKG [Core_ININ-es_EKKK], the interaction score in assay [1] was found to be 2.37.
Take DEIQELEKENEELERKIWELEKKIQELKR [4H166-bH]: the interaction score in assay [2] was 0.192; in assay [3] it was 1.03; in assay [4], 1.25; in [5], 0.81; in assay [6], -1.32; in assay [7], 0.968. Besides, the interaction score in [8] is 1.54; in assay [9], 0.588; in [10], 0.00471; in assay [11], -1.05; in assay [12] it was 0.814; in assay [13], 0.896. For the same molecule, the interaction score was -0.508 in [14]; 0.193 in assay [15]; 0.522 in [16]; -0.624 in assay [17]; 0.621 in assay [18]; 0.23 in assay [19]. Further, the interaction score in assay [20] was 1.49; in [21], 1.58; in assay [22] it was 1.62; in assay [23] it was 1.65; in assay [24], 0.0745; in assay [25] it was 0.0371.
For DKLAAIKAKLAAIKAKLAAIKAKNAALKG [APC1115-AA], the interaction score in assay [26] is -1.43; in assay [27], -1.49; in [28], -1.69; in assay [29] it was -1.98; in assay [30], -1.12; in [31] it was -1.83. Further, the interaction score is 0.913 in [32]; -1.47 in [33]; -1.67 in [34]; -1.61 in assay [35]; -1.04 in assay [36]; -0.451 in assay [37]. Also, the interaction score in assay [38] is -1.67; in assay [39], -1.42; in assay [40] it was -1.74; in assay [41], -1.19; in [42], -1.84; in [43] it was -1.51. The interaction score is -0.803 in assay [44]; -1.52 in [45]; -1.52 in assay [46]; -1.69 in assay [47]; -1.58 in assay [48]; -1.86 in [49]. In addition, the interaction score in [50] was -1.58; in assay [51], -1.93; in [52] it was 0.216; in assay [53] it was -1.35; in assay [54], -1.93; in assay [55] it was -1.68.
With DENAALEAEIAALEAEIAALEAEIAALEG [Core_NIII-es_EEEE], in [56], the interaction score turned out to be 2.01.
With DEIAALEAKNAALKAKIAALKAKIAALKG [Core_INII-es_EKKK], the interaction score in assay [57] was determined as 2.08.
DEIAALEAKNAALKAENAALEAKIAALKG [Core_INNI-es_EKEK] displayed an interaction score in assay [58] of 2.27.
